According to PMC3247280, “Oligomerization of ZFYVE27 (Protrudin) Is Necessary to Promote Neurite Extension” (PLoS ONE, 2011):

Columns and labels:
[1] = molecular target: the molecule itself; experiment: SDS-PAGE and immunoblot (SDS-resistant dimer); lysates of NIH-3T3 overexpressing E2-ZFYVE27^WT or c-Myc-ZFYVE27^WT, immunoblot with ZFYVE27 antibody
[2] = molecular target: the molecule itself; experiment: SDS-PAGE and immunoblot (SDS-resistant dimer); NSC34 cell extract, cytosolic (S-100) and membrane (P-100) fractions, immunoblot with ZFYVE27 antibody

| Protein | stoichiometry N [1] | stoichiometry N [2] |
| --- | --- | --- |
| ZFYVE27^WT (full-length ZFYVE27, E2- or c-Myc-tagged, in mammalian cells) (natural protein, human, UniProt Q5T4F4-2 1-404, looked up, numbers count on: this 404-residue isoform; Each copy carries only one tag: E2 (vector pQM-N-Tag A) or six c-Myc tags (vector pCS2-myc); The two differently tagged copies are written as one molecule because the protein is tested against itself; With the E2-tagged deletion constructs the c-Myc copy was used; with GFP-Spastin and in the sucrose gradient the E2 copy; also called E2-ZFYVE27^WT; …) MQTSEREGSGPELSPSVMPEAPLESPPFPTKSPAFDLFNLVLSYKRLEIYLEPLKDAGDGVRYLLRWQMPLCSLLTCLGLNVLFLTLNEGAWYSVGALMISVPALLGYLQEVCRARLPDSELMRRKYHSVRQEDLQRGRLSRPEAVAEVKSFLIQLEAFLSRLCCTCEAAYRVLHWENPVVSSQFYGALLGTVCMLYLLPLCWVLTLLNSTLFLGNVEFFRVVSEYRASLQQRMNPKQEEHAFESPPPPDVGGKDGLMDSTPALTPTEDLTPGSVEEAEEAEPDEEFKDAIEEDDEGAPCPAEDELALQDNGFLSKNEVLRSKVSRLTERLRKRYPTNNFGNCTGCSATFSVLKKRRSCSNCGNSFCSRCCSFKVPKSSMGATAPEAQRETVFVCASCNQTLSK | 2 |  |
| endogenous ZFYVE27 of NSC34 cells (natural protein, mouse (endogenous in NSC34), UniProt Q3TXX3 1-415, looked up, ZFYVE27 expressed endogenously in NSC34 (a mouse embryonic spinal cord-neuroblastoma hybrid cell line); also called mo-ZFYVE27; di-ZFYVE27) MQTSDRDLSGPEASPSGMPEVLSECPPAPTKSAAFDLFNLVLSYKRLEIYLEPLKDAGDGVRYLLRWQMPLCSLLTCLGLNILFLTLNEGAWYSMGALMISVPALLGYLQEVCRGQLPESELMRRKYHSIRQEDLQRVRLSRVHLSRPEAVAEVKSFLIQLEAFLARLCYTCESAYRVLHWENPVVSSQFYGALLGMVCMLYLLPLCWVLALLNSTLFLGNGDFFRVVCEYRACLQRRMNPRQEECACESSALQGAGGRGLLDSSPAPTPTEDLTPGSVEEAEEAEPDEEFKDAIEETHLVVLEDEEGTPCPAEDELTLQDNGFLSKNEVLRSKVSRLTERLRKRYPTNNFGNCAGCAATFSVLKKRRSCSNCGNSFCSRCCSFKVPRSSMGATAPEAQRETVCVCASCNQTLSK |  | 2 |
